Drawing on patent US20190218553, “VON WILLEBRAND FACTOR (VWF)-TARGETING AGENTS AND METHODS OF USING THE SAME” (DUKE UNIVERSITY, published 2019), this text covers Kd for 16 molecules.

One may read the Kd as the free concentration of one partner at which half of the binding sites on the other are occupied at equilibrium, for simple one-to-one binding. Read a high Kd as a looser complex.

In data set [1] the target is T1, von Willebrand factor (VWF) (Homo sapiens, UniProt P04275 P04275:764-2813). As to the kind of experiment: filter; Bmax 55%; 2 mM CaCl2, 37 C. The following applies: tags: factor VIII free, Haematologic Technologies Inc; label: 5'-32P. On the procedure:
(§1) Affinity constants (Kd values) were determined using double-filter nitrocellulose filter binding assays (Rusconi et al, Thromb. Haemost. $4:841-848 (2000)). All binding studies were performed in binding buffer F (20 mM HEPES, pH 7.4, 150 mM NaCl, 2 mM CaCl₂, and 0.01% BSA) at 37° C. Human purified VWF (factor VIII free) was purchased from Haematologic Technologies Inc. (Essex Junction, Vt.) and used in the double-filter nitrocellulose filter binding assay to determine the Kd of the aptamers. Briefly, RNA were end-labeled at the 5′ end with T4 polynucleotide kinase (New England Biolabs, Beverly, Mass.) and [γ³²P] ATP (Amersham Pharmacia Biotech, Piscataway, N.J.) (Fitzwater and Polisky, Methods Enzymol. 267:275-301 (1996)). End-labeled RNA was diluted in binding buffer F, heat denatured at 65° C. for 5 minutes, and subsequently equilibrated at 37° C. Direct binding was performed by incubating trace ³²P-RNA with varying concentrations of VWF protein in binding buffer F at 37° C. for 5 min. The fraction of the nucleic acid-protein complex which bound to the nitrocellulose membrane was quantified with a phosphorimager (Molecular Dynamics, Sunnyvale, Calif.). Non-specific binding of the radiolabeled nucleic acid was subtracted out of the binding such that only specific binding remained (Wong and Lohman, Proc. Natl. Acad. Sci. USA 90:5428-5432 (1993)).

Data set [2] has as its target T1, von Willebrand factor (VWF). As to the kind of experiment: filter; Bmax 66%; 2 mM CaCl2, 37 C. As to conditions: tags: factor VIII free, Haematologic Technologies Inc; label: 5'-32P. On the procedure: as §1
The target is the same in data set [3]. Description: filter; Bmax 70%; 20 mM HEPES pH 7.4, 150 mM NaCl, 2 mM CaCl2, 0.01% BSA, 37 C. As to conditions: tags: factor VIII free, Haematologic Technologies Inc; label: 5'-32P. As to the method: as §1
Data set [4] has the same target. As to the kind of experiment: filter; Bmax 89%; 2 mM CaCl2, 37 C. As to conditions: tags: factor VIII free human purified VWF, Haematologic Technologies Inc; label: 5'-32P. On the procedure: as §1
For data set [5] the target is unchanged. As to the kind of experiment: filter; Bmax 51%; 2 mM CaCl2, 37 C. The following applies: tags: factor VIII free, Haematologic Technologies Inc; label: 5'-32P. On the procedure:
as §1

The target is the same in data set [6]. As to the kind of experiment: filter; Bmax 72%; 2 mM CaCl2, 37 C. As to conditions: Haematologic Technologies Inc, label: 5'-32P. On the procedure: as §1
The target is the same in data set [7]. Description: filter; Bmax 59%; 2 mM CaCl2, 37 C. The following applies: tags: factor VIII free, Haematologic Technologies Inc; label: 5'-32P. As to the method:
as §1

The target is the same in data set [8]. Description: filter; Bmax 83%; 2 mM CaCl2, 37 C. The following applies: tags: factor VIII free human purified VWF, Haematologic Technologies Inc; label: 5'-32P. On the procedure: as §1
For data set [9] the target is unchanged. Description: filter; Bmax 52%; 2 mM CaCl2, 37 C. The following applies: tags: factor VIII free, Haematologic Technologies Inc; label: 5'-32P. On the procedure: as §1
The target is the same in data set [10]. Description: filter; Bmax 84%; 2 mM CaCl2, 37 C. As to conditions: tags: factor VIII free human purified VWF, Haematologic Technologies Inc; label: 5'-32P. On the procedure:
as §1

For data set [11] the target is unchanged. Description: filter; Bmax 75%; 2 mM CaCl2, 37 C. The following applies: tags: factor VIII free human purified VWF, Haematologic Technologies Inc; label: 5'-32P. On the procedure:
as §1

The target is the same in data set [12]. As to the kind of experiment: filter; Bmax 79%; 2 mM CaCl2, 37 C. The following applies: tags: factor VIII free, Haematologic Technologies Inc; label: 5'-32P. As to the method:
as §1

With CCCAAAACGAACUGCCCUCGAUCGACGCACAGACGU (ssRNA, 2'-F C and U; 2'-OH A and G; 3' idT) [T78], in [1], the equilibrium dissociation constant (Kd) stood at 6.6 nM.
In the case of ACGAACUGCCCUCAGUACUUUCAUGUUCUGACGCACAGACGU (ssRNA, 2'-F C and U; 2'-OH A and G; 3' idT) [T35], the Kd in data set [2] was 12 nM.
Regarding ACGAACUGCCCUCAGCACUUUCAUGUGCUGACGCACAGACGU (ssRNA, 2'-F C and U; 2'-OH A and G; 3' idT) [T33], the Kd in data set [2] came to 15 nM.

B1: VWF9.14 full length (ssRNA)
RNA: GGGAGGACGAUGCGGUGGACGAACUGCCCUCAGCUACUUUCAUGUUGCUGACGCACAGACGACUCGCUGAGGAUCCGAGA
modifications: 2'-F C and U; 2'-OH A and G
For B1, in data set [3], the Kd was determined as 12 nM.
ACGAACUGCCCUCGAUCGACGCACAGACGU (ssRNA, 2'-F C9,C10,C11,C20,C22; ribo G21; rest 2'-OMe; 3' idT) [T59 vrt26] gave a Kd in data set [4] of 18 nM.

B2: T10 (ssRNA)
RNA: GGGAGGUGGACGAACUGCCCUCAGCUACUUUCAUGUUGCUGACGCACAGACGACUCGCUG
modifications: 2'-F C and U; 2'-OH A and G; 3' idT
Molecule B2 came in with a Kd in data set [5] of 18.4 nM.
Consider ACGAACUGCCCUCGUAAGACGCACAGACGU (ssRNA, mAmCmGmAmAmCmUmGfCfCfCmUmCmGmUmAmAmGmAfCrGfCmAmCmAmGmAmCmGfUidT) [DTRI-011], for which the Kd in data set [6] (tags: factor VIII free) is 3.8 nM.
AAAAACGAACUGCCCUCGAUCGACGCACAGACGU (ssRNA, 2'-F C and U; 2'-OH A and G; 3' idT) [T77] yielded a dissociation constant Kd in data set [7] of 8.8 nM.

B3: T93 vrt1 (ssRNA)
RNA: ACGAACUGCCCUCUAUUUCAUUUGACGCACAGACGU
modifications: 2'-F C2,U7,C9,C10,C11,U12,C26,C28,C34,U36; ribo A1,G3,G8,A25,G27,A29,G35; rest 2'-OMe; 3' idT
On to B3, for which the Kd in data set [4] was determined as 0.8 nM.
With ACGAACUGCCCUCGAUCGACGCACAGACGU (ssRNA, 2'-F U7,C9,C10,C11,U12,C20,C22,U30; ribo A19,G21; rest 2'-OMe; 3' idT) [T59 vrt24], the Kd in data set [8] is 2.4 nM.
In data set [9], ACGAACUGCCCUCGACUUAUGUCGACGCACAGACGU (ssRNA, 2'-F C and U; 2'-OH A and G; 3' idT) [T48] showed a Kd of 12 nM.

B4: T89 vrt1 (ssRNA)
RNA: ACGAACUGCCCUCGUAUUAUUUCGACGCACAGACGU
modifications: 2'-F C2,U7,C9,C10,C11,U12,C26,C28,C34,U36; ribo A1,G3,G8,A25,G27,A29,G35; rest 2'-OMe; 3' idT
For B4, the Kd in [10] turned out to be 1.2 nM.
In turn, ACGAACUGCCCUCGUAUUAUUUCGACGCACAGACGU (ssRNA, 2'-F C9,C10,C11,C26,G27,C28; rest 2'-OMe; 3' idT) [T89 vrt7] yielded a Kd in [11] of 38.5 nM.
Molecule ACGAACUGCCCUCGUAUUAUUUCGACGCACAGACGU (ssRNA, 2'-F C and U; 2'-OH A and G; 3' idT) [T89] yielded a Kd in [12] of 12 nM.
In turn, ACGAACUGCCCUCGAUCGACGCACAGACGUAAAAA (ssRNA, 2'-F C9,C10,C11,C20,G21,C22; rest 2'-OMe; 3' idT) [T83 vrt7] showed a Kd in [8] of 265 nM.

B5: T84 vrt1 (ssRNA)
RNA: ACGAACUGCCCUCGAUCGACGCACAGACGUACACG
modifications: 2'-F C2,U7,C9,C10,C11,U12,C20,C22,C28,U30; ribo A1,G3,G8,A19,G21,A23,G29; rest 2'-OMe; 3' idT
With B5, the Kd in [6] (tags: factor VIII free human purified VWF) worked out at 1.7 nM.
